# T1: Flavobacterium johnsoniae FjXAL tyrosine ammonia lyase (Protein GI 146298870), SEQ ID NO: 1, His-tagged (N-terminal tag SEQ ID NO: 11) (Flavobacterium johnsoniae, UniProt A5FKY3)
# T1 sequence (A5FKY3 1-506): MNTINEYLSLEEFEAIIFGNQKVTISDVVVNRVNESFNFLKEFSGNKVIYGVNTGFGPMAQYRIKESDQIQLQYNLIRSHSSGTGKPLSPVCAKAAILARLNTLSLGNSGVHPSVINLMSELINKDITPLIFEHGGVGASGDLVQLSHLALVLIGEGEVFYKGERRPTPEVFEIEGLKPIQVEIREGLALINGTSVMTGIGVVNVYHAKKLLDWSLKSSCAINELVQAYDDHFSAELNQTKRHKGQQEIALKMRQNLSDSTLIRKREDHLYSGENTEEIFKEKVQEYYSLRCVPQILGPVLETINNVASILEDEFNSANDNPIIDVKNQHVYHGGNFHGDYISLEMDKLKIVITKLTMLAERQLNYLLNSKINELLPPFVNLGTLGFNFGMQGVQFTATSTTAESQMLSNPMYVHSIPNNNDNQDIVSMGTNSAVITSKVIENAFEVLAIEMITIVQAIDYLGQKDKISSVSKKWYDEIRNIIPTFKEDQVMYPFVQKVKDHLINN
# Experiments:
# [1] = biological target: T1, Flavobacterium johnsoniae FjXAL tyrosine ammonia lyase (Protein GI 146298870), SEQ ID NO: 1, His-tagged (N-terminal tag SEQ ID NO: 11); test: In vitro kinetics of purified His-tagged FjXAL (tyrosine/phenylalanine ammonia lyase activity, absorbance at 315/295 nm); assay type: biochemical
# Experimental: The tyrosine ammonia lyase activity may for instance be determined in accordance to the following method: Enzymatic assays are performed in 200 μL volumes in wells in a UV transparent 96-well plate, by following the increase in absorbance at 315 nm (pHCA) using spectrophotometry or HPLC with UV detection. The reaction mixtures contain 2 μg of purified protein and are initiated by adding 1 mM tyrosine or 6 mM after equilibration to 30° C. The enzymatic activity is calculated as U/g, where U is defined as μmol substrate converted per minute. Negative controls contain no purified protein. Kinetic constants Km and vmax are determined from assays containing 1.56 μM to 200 μM tyrosine. See also Kyndt et al. (2002).
# Four of the enzymes were further purified by His-tag purification as follows. A DNA linker (5′ phosphorylated oligonucleotides CBJP559 and CBJP560, Table 5) was inserted in place of the sequence between the NdeI and BgIII site in plasmid pCDFDuet-1. This would result in the addition of the amino acids MAHHHHHHENLYFQ (SEQ ID NO: 11) to the N-terminal end of the polypeptides. […]
# Enzymatic assays were performed in 200 μL volumes in wells in a UV transparent 96-well plate, by following the increase in absorbance at 315 nm (pHCA) or 295 nm (CA). […] The enzymatic activity was calculated as U/g, where U is defined as μmol substrate converted per minute.
# [2] = system: Saccharomyces cerevisiae CEN.PK102-5B; test: Specific production of pHCA and CA by S. cerevisiae expressing TAL enzymes; assay type: cell-based; settings: 72 h, 30° C., +/- standard deviation
# Excerpt: A number of the previously characterized enzymes were characterized when expressed in Saccharomyces cerevisiae. Genes encoding HaXAL1 and FjXAL were synthesized with codon optimization for S. cerevisiae available by GeneArt (Life Technologies), and were named HaXAL1 Sc and FjXALSc. Genes were amplified using the oligonucleotide (refer to specific name) shown in Table 6, and inserted by uracil-excision into the vector pCfB132 together with the PPGK1 promoter amplified by primers PPGK1_fw and PPGK1_rv (Jensen et al., 2014). The finished plasmids were transformed into Saccharomyces cerevisiae CEN.PK102-5B (MAT a ura3-52 his3Δ1 leu2-3/112 MAL2-8c SUC2) using a standard lithium acetate transformation protocol and selected for on synthetic drop-out media plates lacking uracil.
# Cells were grown in SC medium without uracil, and diluted into Delft medium or Feed-In-Time (FIT) medium (m2p-labs) supplemented with leucine and histidine. After 72 h of incubation at 30° C. with shaking, samples were taken for the analysis of optical density at 600 nm and for clarification of the supernatant, which was analyzed by HPLC as described in example 1. The specific production was calculated as micromolar (μM) concentration per unit of optical density of the culture at 600 nm and is shown in Table 4.
# [3] = system: E. coli BL21(DE3)pLysS cells; test: Titers of hydroxycinnamic acids in supernatants of E. coli cultures expressing TAL homologs; assay type: cell-based, Escherichia coli; settings: 16 hours, 37° C., duplicate
# Experimental: E. coli strains described in Example 1 were used. M9 medium with 0.2% glucose and 0.5 mM IPTG also containing either tyrosine (204 μM), L-dopa (194 μM) or 3-O-methyldopa (262 μM) was transferred as 3-mL aliquots into a 24-well deep-well plate (Enzyscreen). Aliquots were taken for HPLC before the wells were inoculated with 200 μL of overnight cultures of the strains. The plates were placed at 37° C. with shaking for 16 hours. Samples of the supernatant were withdrawn after two rounds of centrifugation. The samples were subjected to HPLC along with chemical standards as described in Example 1. p-coumaric acid, caffeic acid and ferulic acid was measured by absorbance at 333 nm. Tyrosine, L-dopa and 3-O-methyldopa were measured by fluorescence (excitation at 274 nm, emission at 303 nm).
# There was no measurable product in the medium before inoculation.
Molecule,"Kcat ([1]; 30° C, 1.56 μM to 200 μM tyrosine or 193 μM to 25 mM phenylalanine) [s⁻¹]",TAL/PAL ([1]; ratio of Kcat/Km for Tyr over Phe),Specific production of CA ([2]; Delft + Tyr (10 mM)) [μM OD600-1],Specific production of pHCA ([2]; Delft + Tyr (10 mM)) [μM OD600-1],Specific production of CA ([2]; Delft medium) [μM OD600-1],Specific production of pHCA ([2]; Delft medium) [μM OD600-1],Specific production of CA ([2]; FIT + Tyr (10 mM)) [μM OD600-1],Specific production of pHCA ([2]; FIT + Tyr (10 mM)) [μM OD600-1],Specific production of CA ([2]; FIT medium) [μM OD600-1],Specific production of pHCA ([2]; FIT medium) [μM OD600-1],Titer of ferulic acid ([3]; M9 + 3-O-methyldopa (262 μM)) [µM],Titer of caffeic acid ([3]; M9 + L-dopa (194 μM)) [µM],Titer of p-coumaric acid ([3]; M9 + tyrosine (204 μM)) [µM]
"N[C@@H](Cc1ccc(O)cc1)C(=O)O [Tyr, tyrosine]",0.0212,3000,–,–,–,–,–,–,–,–,–,–,–
"Flavobacterium johnsoniae FjXAL tyrosine ammonia lyase (Protein GI 146298870), SEQ ID NO: 1, His-tagged (N-terminal tag SEQ ID NO: 11) (Flavobacterium … (protein) MNTINEYLSLEEFEAIIFGNQKVTISDVVVNRVNESFNFLKEFSGNKVIYGVNTGFGPMAQYRIKESDQIQLQYNLIRSHSSGTGKPLSPVCAKAAILARLNTLSLGNSGVHPSVINLMSELINKDITPLIFEHGGVGASGDLVQLSHLALVLIGEGEVFYKGERRPTPEVFEIEGLKPIQVEIREGLALINGTSVMTGIGVVNVYHAKKLLDWSLKSSCAINELVQAYDDHFSAELNQTKRHKGQQEIALKMRQNLSDSTLIRKREDHLYSGENTEEIFKEKVQEYYSLRCVPQILGPVLETINNVASILEDEFNSANDNPIIDVKNQHVYHGGNFHGDYISLEMDKLKIVITKLTMLAERQLNYLLNSKINELLPPFVNLGTLGFNFGMQGVQFTATSTTAESQMLSNPMYVHSIPNNNDNQDIVSMGTNSAVITSKVIENAFEVLAIEMITIVQAIDYLGQKDKISSVSKKWYDEIRNIIPTFKEDQVMYPFVQKVKDHLINN",–,–,0 ± 0,120 ± 16,0 ± 0,30 ± 3.5,0 ± 0,120 ± 19,0 ± 0,130 ± 16,1.1 ± 0.3,5.7 ± 1.0,215 ± 11.1

# Reference: patent US11306331B2, “Processes for the production of hydroxycinnamic acids using polypeptides having tyrosine ammonia lyase activity” (CysBio ApS, priority 2014, dated 2022)
